Reference: paper PMC4627094

Key:
[1] = target: T1, APOBEC3G (A3G) (human, UniProt Q9HC16 1-384); assay: EMSA; 37 C, 2.0 uM RNA; 40 mM Tris pH 7.2, 50 mM NaCl, 10 mM MgCl2, 1 mM DTT, 0.1% Triton X-100, 2% glycerol, 37 C 20 min; FA with 2 nM labeled NA; UV cross-linking in 1X PBS, 37 C 20
[2] = target: T1, APOBEC3G (A3G); assay: fluorescence anisotropy; 10 mM MgCl2; 40 mM Tris pH 7.2, 50 mM NaCl, 10 mM MgCl2, 1 mM DTT, 0.1% Triton X-100, 2% glycerol, 37 C 20 min; FA with 2 nM labeled NA; UV cross-linking in 1X PBS, 37 C 20
[3] = target: T1, APOBEC3G (A3G); assay: competition (fluorescence anisotropy); vs labeled 25 nt Sub RNA (N2); 40 mM Tris pH 7.2, 50 mM NaCl, 10 mM MgCl2, 1 mM DTT, 0.1% Triton X-100, 2% glycerol, 37 C 20 min; FA with 2 nM labeled NA; UV cross-linking in 1X PBS, 37 C 20
[4] = target: T1, APOBEC3G (A3G); assay: competition (fluorescence anisotropy); vs labeled 25 nt Sub ssDNA (N1); 40 mM Tris pH 7.2, 50 mM NaCl, 10 mM MgCl2, 1 mM DTT, 0.1% Triton X-100, 2% glycerol, 37 C 20 min; FA with 2 nM labeled NA; UV cross-linking in 1X PBS, 37 C 20

T1 sequence (Q9HC16 whole entry): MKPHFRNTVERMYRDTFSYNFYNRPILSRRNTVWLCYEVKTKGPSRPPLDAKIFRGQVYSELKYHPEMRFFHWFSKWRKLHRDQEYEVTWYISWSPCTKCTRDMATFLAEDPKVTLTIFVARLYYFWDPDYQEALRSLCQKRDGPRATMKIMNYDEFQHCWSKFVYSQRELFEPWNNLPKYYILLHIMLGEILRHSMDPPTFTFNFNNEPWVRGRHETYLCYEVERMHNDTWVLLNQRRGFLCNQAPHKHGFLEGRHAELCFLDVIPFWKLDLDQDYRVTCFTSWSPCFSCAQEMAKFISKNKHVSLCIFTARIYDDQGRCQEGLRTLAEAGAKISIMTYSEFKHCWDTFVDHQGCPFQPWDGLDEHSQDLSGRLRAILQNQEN

Binder: CAUAUAUGAUACAAUUUGAUCAGUA (ssRNA) [25 nt ApoB RNA]
- binding result [1]: binds

Binder: UUAUUUUUAAGGAUUUAUUUAUUUA (ssRNA) [25 nt Sub RNA, Alexa 647]
- Kd [2]: 0.0029 µM

Binder: UUAUUUUUAAGGAUU (ssRNA) [15 nt Sub RNA, Alexa 647]
- Kd [2]: 0.0044 µM

Binder: TTATTUUUAAGGATTTATTTATTTA (ssDNA, dU at positions 6-8) [25 nt Sub ssDNA, Alexa 647]
- Kd [2]: 0.0038 µM

Binder: TTATTUUUAAGGATT (ssDNA, dU at positions 6-8) [15 nt Sub ssDNA, Alexa 647]
- Kd [2]: 0.01 µM

Binder: UUAUUUUUAAGGAUUUAUUUAUUUA (ssRNA) [25 nt Sub RNA, unlabeled]
- IC50 [3]: 0.115 µM
- IC50 [4]: 0.057 µM

Binder: TTATTUUUAAGGATTTATTTATTTA (ssDNA, dU at positions 6-8) [25 nt Sub ssDNA (unlabeled or 32P)]
- IC50 [3]: 0.022 µM
- IC50 [4]: 0.015 µM
